Measurements taken from patent US20190055314A1 (ADAGENE, published 2019).

Tests used:
[1] = target: T1, human CD137-His6 (Sino Biological #10041-H08H) (human, UniProt Q07011 24-186); test: SPR Biacore, IgG
T1 construct: Bought; also called human CD137 protein; not shown: His6 tag

[2] = target: T2, human CD137 fused with human FC fragment (human, UniProt Q07011 24-186, limits assumed); test: ELISA, coated CD137-Fc
T2 construct: may be the same reagent as CD137-hisFc; also called human CD137 (FC fusion protein); not shown: human Fc fragment

[3] = target: T3, monkey CD137 fused with human FC fragment (cynomolgus monkey, UniProt Q07011 24-179 (human entry), limits assumed); test: ELISA, coated CD137-Fc
T3 construct: also called Cyno CD137-Fc; not shown: human Fc fragment
T3 chain: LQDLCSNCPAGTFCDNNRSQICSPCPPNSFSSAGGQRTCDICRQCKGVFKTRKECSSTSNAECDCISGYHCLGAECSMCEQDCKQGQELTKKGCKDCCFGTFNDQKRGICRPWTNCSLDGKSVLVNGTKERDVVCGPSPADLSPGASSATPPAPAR

Hu_GQ109AA = target: T4, Hu_GQ109AA (human, UniProt Q07011 18-255); test: flow cytometry, HEK293F
T4 construct: On HEK293F
T4 sequence (Q07011 18-255 G109A/Q110A): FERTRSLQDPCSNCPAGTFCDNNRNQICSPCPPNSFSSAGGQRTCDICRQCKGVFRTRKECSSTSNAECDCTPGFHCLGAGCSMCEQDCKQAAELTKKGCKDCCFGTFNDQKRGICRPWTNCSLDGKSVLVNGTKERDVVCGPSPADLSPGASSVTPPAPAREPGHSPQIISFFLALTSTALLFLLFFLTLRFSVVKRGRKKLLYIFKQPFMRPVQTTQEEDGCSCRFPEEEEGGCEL

Hu_EL111AA = target: T5, Hu_EL111AA (human, UniProt Q07011 18-255); test: flow cytometry, HEK293F
T5 construct: On HEK293F
T5 sequence (Q07011 18-255 E111A/L112A): as the sequence (Q07011 18-255 G109A/Q110A) above, with A92G, A93Q, E94A, L95A counted along it

Hu_TN137AA = target: T6, Hu_TN137AA (human, UniProt Q07011 18-255); test: flow cytometry, HEK293F
T6 construct: On HEK293F
T6 sequence (Q07011 18-255 T137A/N138A): as the sequence (Q07011 18-255 G109A/Q110A) above, with A92G, A93Q, T120A, N121A counted along it

[4] = target: T7, monkey CD137 protein (Biacore) (cynomolgus monkey, UniProt Q07011 24-179 (human entry), limits assumed); test: SPR Biacore, IgG captured
T7 construct: Construct used as SPR analyte not described; also called Cyno CD137
T7 chain: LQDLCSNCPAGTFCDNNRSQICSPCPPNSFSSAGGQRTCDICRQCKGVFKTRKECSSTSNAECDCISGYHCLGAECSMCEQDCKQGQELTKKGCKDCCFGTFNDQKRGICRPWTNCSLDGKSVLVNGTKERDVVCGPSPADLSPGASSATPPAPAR

[5] = target: T8, full-length human CD137 on the cell surface (human, UniProt Q07011 18-255); test: cell-based or functional assay
T8 sequence (Q07011 18-255): as the sequence (Q07011 18-255 G109A/Q110A) above, with A92G, A93Q counted along it

[6] = target: T9, full-length monkey CD137 on the cell surface (cynomolgus monkey, UniProt Q07011 24-179 (human entry)); test: cell-based or functional assay
T9 chain: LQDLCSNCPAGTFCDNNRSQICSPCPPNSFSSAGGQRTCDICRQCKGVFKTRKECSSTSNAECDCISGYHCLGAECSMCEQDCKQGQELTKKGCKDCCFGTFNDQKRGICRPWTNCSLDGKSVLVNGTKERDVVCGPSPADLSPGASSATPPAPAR

Hu_CRD3 = target: T10, Hu_CRD3 (human, limits assumed); test: flow cytometry, yeast display [Cont.]
T10 construct: also called human CD137 CRD3
T10 chain: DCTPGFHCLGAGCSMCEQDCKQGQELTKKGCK

Hu_CRD4 = target: T11, Hu_CRD4 (human, UniProt Q07011 119-159, limits assumed); test: flow cytometry, yeast display [Cont.]
T11 construct: also called human CD137 CRD4
T11 chain: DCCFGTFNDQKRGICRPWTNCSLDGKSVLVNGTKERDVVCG

Hu_CRD1-CRD2 = target: T12, Hu_CRD1-CRD2 (human, UniProt Q07011 24-86, limits assumed); test: flow cytometry, yeast display [Cont.]
T12 construct: also called two CRD units (CRD1-CRD2) of human CD137

Hu_CRD2-CRD3 = target: T13, Hu_CRD2-CRD3 (human, UniProt Q07011 46-118, limits assumed); test: flow cytometry, yeast display [Cont.]
T13 construct: also called two CRD units (CRD2-CRD3) of human CD137

Hu_CRD1-CRD2-CRD3 = target: T14, Hu_CRD1-CRD2-CRD3 (human, UniProt Q07011 24-118, limits assumed); test: flow cytometry, yeast display [Cont.]
T14 construct: also called three CRD units (CRD1-CRD2-CRD3) of human CD137

Hu_CRD3-CRD4 = target: T15, Hu_CRD3-CRD4 (human, UniProt Q07011 87-159, limits assumed); test: flow cytometry, yeast display [Cont.]
T15 construct: also called two CRD units (CRD3-CRD4) of human CD137

Hu_CRD2-CRD3-CRD4 = target: T16, Hu_CRD2-CRD3-CRD4 (human, UniProt Q07011 46-159, limits assumed); test: flow cytometry, yeast display [Cont.]
T16 construct: also called three CRD units (CRD2-CRD3-CRD4) of human CD137

[7] = target: T8, full-length human CD137 on the cell …; test: flow cytometry, HEK293F cells expressing CD137 or mutant [Cont.]
[8] = target: T17, full-length mouse CD137 on the cell surface (mouse, UniProt P20334 24-178); test: as above
T17 sequence: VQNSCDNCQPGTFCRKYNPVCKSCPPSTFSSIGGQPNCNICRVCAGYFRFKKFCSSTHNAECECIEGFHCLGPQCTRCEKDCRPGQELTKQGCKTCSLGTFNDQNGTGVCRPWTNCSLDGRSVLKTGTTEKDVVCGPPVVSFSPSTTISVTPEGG

Hu_FN125AA = target: T18, Hu_FN125AA (human, UniProt Q07011 18-255); test: as above
T18 construct: On HEK293F
T18 sequence (Q07011 18-255 F125A/N126A): as the sequence (Q07011 18-255 G109A/Q110A) above, with A92G, A93Q, F108A, N109A counted along it

Hu_PW135AA = target: T19, Hu_PW135AA (human, UniProt Q07011 18-255); test: as above
T19 construct: On HEK293F
T19 sequence (Q07011 18-255 P135A/W136A): as the sequence (Q07011 18-255 G109A/Q110A) above, with A92G, A93Q, P118A, W119A counted along it

Hu_GT150AA = target: T20, Hu_GT150AA (human, UniProt Q07011 18-255); test: as above
T20 construct: On HEK293F
T20 sequence (Q07011 18-255 G150A/T151A): as the sequence (Q07011 18-255 G109A/Q110A) above, with A92G, A93Q, G133A, T134A counted along it

[9] = target: T9, full-length monkey CD137 on the cell …; test: flow cytometry, PMA/ionomycin-activated monkey T cells, antibody 100 nM
[10] = target: T8, full-length human CD137 on the cell …; test: flow cytometry ligand competition, HEK293F cells with human CD137, antibody 100 nM then 33 nM biotinylated CD137L, streptavidin-Alexa 647

B1: AG10059 (antibody, human IgG4 S228P, kappa, V domains shown)
VH: EVQLVESGGGLVQPGGSLRLSCAASGYSITSGHYWAWIRQAPGKGLEWVSSISGYGSTTYYADSVKGRFTISRDNSKNTLYLQLNSLRAEDTAVYYCARGGSDAVLGDWFAYWGQGTLVTVSS
VL: DIQLTQSPSSLSASVGDRVTITCRASQGIGSFLAWYQQKPGKAPKLLIYDASNLETGVPSRFSGSGSGTDFTLTISSLQPEDFATYYCQQGYYLWTFGQGTKVEIKR
Question: With B1 as the binder, how does the Kd [1] read?
Answer: The Kd was 38 nM.

Question: What about the koff [1] of the same binder?
Answer: The koff was 0.0063 s⁻¹.

Question: What about the kon [1] of the same binder?
Answer: Its kon is 160000 M⁻¹ s⁻¹.

Question: What about the Kd [2] of the same binder?
Answer: Its Kd is 0.8 nM.

Question: What about the Kd [3] of the same binder?
Answer: Its Kd is 0.4 nM.

Question: Does B1 bind (Hu_GQ109AA)?
Answer: Result: binds

Question: Does B1 bind (Hu_EL111AA)?
Answer: Result: binds

Question: Does B1 bind (Hu_TN137AA)?
Answer: Result: binds

Question: And the Kd [4]?
Answer: Its Kd is 23.1 nM.

Question: And the “NFκB luciferase reporter, 293T cells with human CD137: EC50 (read off the curve)” value [5]?
Answer: The value was ~10 nM.

Question: What about the “NFκB luciferase reporter, 293T cells with monkey CD137: EC50 (read off the curve)” value [6] of the same binder?
Answer: The value was ~1 nM.

Question: And the “% in upper right quadrant” value (Hu_CRD3)?
Answer: Its value is 0.25%.

Question: And the Mean (Hu_CRD3)?
Answer: Its Mean is 6200.

Question: And the “% in upper right quadrant” value (Hu_CRD4)?
Answer: Its value is 0.17%.

Question: And the Mean (Hu_CRD4)?
Answer: Its Mean is 16100.

Question: And the “% in upper right quadrant” value (Hu_CRD1-CRD2)?
Answer: Its value is 0.31%.

Question: What about the Mean (Hu_CRD1-CRD2) of the same binder?
Answer: The Mean was 12000.

Question: What about the “% in upper right quadrant” value (Hu_CRD2-CRD3) of the same binder?
Answer: The value was 0.15%.

Question: And the Mean (Hu_CRD2-CRD3)?
Answer: Its Mean is 7460.

Question: And the “% in upper right quadrant” value (Hu_CRD1-CRD2-CRD3)?
Answer: Its value is 49.4%.

Question: And the Mean (Hu_CRD1-CRD2-CRD3)?
Answer: The Mean was 15100.

Question: And the “% in upper right quadrant” value (Hu_CRD3-CRD4)?
Answer: The value was 0.39%.

Question: What about the Mean (Hu_CRD3-CRD4) of the same binder?
Answer: Its Mean is 11700.

Question: And the “% in upper right quadrant” value (Hu_CRD2-CRD3-CRD4)?
Answer: Its value is 0.25%.

Question: What about the Mean (Hu_CRD2-CRD3-CRD4) of the same binder?
Answer: Its Mean is 14900.

Question: What about the “% in upper right quadrant” value [7] of the same binder?
Answer: Its value is 34.7%.

Question: And the “% in upper right quadrant” value [8]?
Answer: Its value is 0.041%.

Question: Does B1 bind (Hu_FN125AA)?
Answer: Result: binds

Question: What about the Mean (Hu_PW135AA) of the same binder?
Answer: Its Mean is 31600.

Question: What about the Mean (Hu_GT150AA) of the same binder?
Answer: The Mean was 13300.

Question: What about the “% of cells positive for antibody binding” value [9] of the same binder?
Answer: Its value is 8.1%.

Question: What about the “% in upper right quadrant (CD137L signal)” value [10] of the same binder?
Answer: Its value is 52.9%.

Question: What about the “Median (APC signal of bound biotinylated CD137L)” value [10] of the same binder?
Answer: The value was 46500.

B2: AG10058 (antibody, human IgG4 S228P, kappa, V domains shown)
VH: EVQLVESGGGLVQPGGSLRLSCAASGFSLSTSGVGVGWIRQAPGKGLEWLALIDWDDDKYYSPSLKSRLTISRDNSKNTLYLQLNSLRAEDTAVYYCARGGSDTVLGDWFAYWGQGTLVTVSS
VL: DIQLTQSPSSLSASVGDRVTITCRASQSVSPYLAWYQQKPGKAPKLLIYDASSLESGVPSRFSGSGSGTDFTLTISSLQPEDFATYYCQQGYSLWTFGQGTKVEIKR
Question: For B2, which Kd [1] is on record?
Answer: Its Kd is 5.9 nM.

Question: And the koff [1]?
Answer: Its koff is 0.0024 s⁻¹.

Question: And the kon [1]?
Answer: The kon was 410000 M⁻¹ s⁻¹.

Question: And the Kd [2]?
Answer: The Kd was 0.2 nM.

Question: And the Kd [3]?
Answer: Its Kd is 0.3 nM.

Question: Does B2 bind (Hu_GQ109AA)?
Answer: Result: binds

Question: Does B2 bind (Hu_EL111AA)?
Answer: Result: binds

Question: Does B2 bind (Hu_TN137AA)?
Answer: Result: binds

Question: What about the Kd [4] of the same binder?
Answer: Its Kd is 9.3 nM.

Question: What about the “NFκB luciferase reporter, 293T cells with human CD137: EC50 (read off the curve)” value [5] of the same binder?
Answer: The value was ~5 nM.

Question: And the “NFκB luciferase reporter, 293T cells with monkey CD137: EC50 (read off the curve)” value [6]?
Answer: The value was ~1 nM.

Question: And the “% in upper right quadrant” value (Hu_CRD3)?
Answer: Its value is 0.15%.

Question: And the Mean (Hu_CRD3)?
Answer: Its Mean is 10400.

Question: And the “% in upper right quadrant” value (Hu_CRD4)?
Answer: The value was 0.15%.

Question: And the Mean (Hu_CRD4)?
Answer: The Mean was 16100.

Question: What about the “% in upper right quadrant” value (Hu_CRD1-CRD2) of the same binder?
Answer: Its value is 0.18%.

Question: And the Mean (Hu_CRD1-CRD2)?
Answer: Its Mean is 3680.

Question: What about the “% in upper right quadrant” value (Hu_CRD2-CRD3) of the same binder?
Answer: The value was 0.11%.

Question: And the Mean (Hu_CRD2-CRD3)?
Answer: Its Mean is 14600.

Question: And the “% in upper right quadrant” value (Hu_CRD1-CRD2-CRD3)?
Answer: The value was 55.6%.

Question: And the Mean (Hu_CRD1-CRD2-CRD3)?
Answer: The Mean was 20000.

Question: What about the “% in upper right quadrant” value (Hu_CRD3-CRD4) of the same binder?
Answer: Its value is 0.19%.

Question: And the Mean (Hu_CRD3-CRD4)?
Answer: The Mean was 18200.

Question: What about the “% in upper right quadrant” value (Hu_CRD2-CRD3-CRD4) of the same binder?
Answer: Its value is 0.91%.

Question: And the Mean (Hu_CRD2-CRD3-CRD4)?
Answer: The Mean was 7680.

Question: And the “% in upper right quadrant” value [7]?
Answer: Its value is 27.3%.

Question: What about the “% in upper right quadrant” value [8] of the same binder?
Answer: The value was 31.1%.

Question: Does B2 bind (Hu_FN125AA)?
Answer: Result: binds

Question: And the Mean (Hu_PW135AA)?
Answer: The Mean was 24300.

Question: And the Mean (Hu_GT150AA)?
Answer: The Mean was 12100.

Question: And the “% of cells positive for antibody binding” value [9]?
Answer: Its value is 9.8%.

Question: And the “% in upper right quadrant (CD137L signal)” value [10]?
Answer: The value was 37.6%.

Question: What about the “Median (APC signal of bound biotinylated CD137L)” value [10] of the same binder?
Answer: The value was 22300.
